The values below come from PMC3528742.

For test [1], the target named is human c-NADP-ME H51A/D90A (human) (UniProt P48163). The test is described as follows: AUC; sedimentation velocity, 0.3 mg/ml protein, 30 mM Tris-acetate pH 7.4, without urea, 20°C, 42,000 rpm, SEDFIT continuous size distribution.
In test [2] the target is human c-NADP-ME H51A/D139A (human) (UniProt P48163). The description is as above.
The target of test [3] is human c-NADP-ME H142A (human) (UniProt P48163). The description is as above.
Test [4] concerns the target human c-NADP-ME H142A/D568A (human) (UniProt P48163). The test is described as above.
The target of test [5] is human c-NADP-ME W572A (human) (UniProt P48163). The description is as above.
For test [6], the target named is T1, human cytosolic NADP+-dependent malic enzyme, wild type (human), P48163.
T1 chain: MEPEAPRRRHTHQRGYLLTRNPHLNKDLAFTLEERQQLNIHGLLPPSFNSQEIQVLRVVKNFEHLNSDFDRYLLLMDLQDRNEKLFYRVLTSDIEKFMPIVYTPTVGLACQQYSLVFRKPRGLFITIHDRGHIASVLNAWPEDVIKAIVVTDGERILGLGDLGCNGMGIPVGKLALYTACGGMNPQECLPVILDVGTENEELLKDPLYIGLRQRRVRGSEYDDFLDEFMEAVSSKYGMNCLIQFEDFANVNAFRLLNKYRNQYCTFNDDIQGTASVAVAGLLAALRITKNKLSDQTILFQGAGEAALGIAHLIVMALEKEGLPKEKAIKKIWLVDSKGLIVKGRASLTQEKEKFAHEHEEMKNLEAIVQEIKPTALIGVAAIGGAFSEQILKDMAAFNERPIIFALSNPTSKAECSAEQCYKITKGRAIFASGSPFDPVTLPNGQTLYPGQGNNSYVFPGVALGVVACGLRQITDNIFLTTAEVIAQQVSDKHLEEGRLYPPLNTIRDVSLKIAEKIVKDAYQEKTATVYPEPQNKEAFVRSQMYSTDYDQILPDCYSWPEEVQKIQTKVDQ
The test is described as follows: AUC; sedimentation velocity, 0.3 mg/ml protein, preincubated with 2 M urea in 30 mM Tris-acetate pH 7.4 at 25°C for 16 h, run at 20°C. As to conditions: remark: other sources report otherwise.

One may read the stoichiometry N as the number of molecules, sites or subunits per partner or assembly. “human c-NADP-ME H51A/D90A (from UniProt P48163 13-564) (enzyme)”: the stoichiometry N in test [1] is 2. On to “human c-NADP-ME H51A/D139A (from UniProt P48163 13-564) (enzyme)”, for which, in test [2], the stoichiometry N came out at 2.

“human c-NADP-ME H142A (from UniProt P48163 13-564) (enzyme)”: the stoichiometry N in test [3] amounted to 2. On to “human c-NADP-ME H142A/D568A (from UniProt P48163 13-564) (enzyme)”, for which, in test [4], the stoichiometry N was found to be 2. As for “human c-NADP-ME W572A (from UniProt P48163 13-564) (enzyme)”, in test [5], the stoichiometry N was determined as 2.

B1: human cytosolic NADP+-dependent malic enzyme, wild type, P48163 1-572 (enzyme)
chain: MEPEAPRRRHTHQRGYLLTRNPHLNKDLAFTLEERQQLNIHGLLPPSFNSQEIQVLRVVKNFEHLNSDFDRYLLLMDLQDRNEKLFYRVLTSDIEKFMPIVYTPTVGLACQQYSLVFRKPRGLFITIHDRGHIASVLNAWPEDVIKAIVVTDGERILGLGDLGCNGMGIPVGKLALYTACGGMNPQECLPVILDVGTENEELLKDPLYIGLRQRRVRGSEYDDFLDEFMEAVSSKYGMNCLIQFEDFANVNAFRLLNKYRNQYCTFNDDIQGTASVAVAGLLAALRITKNKLSDQTILFQGAGEAALGIAHLIVMALEKEGLPKEKAIKKIWLVDSKGLIVKGRASLTQEKEKFAHEHEEMKNLEAIVQEIKPTALIGVAAIGGAFSEQILKDMAAFNERPIIFALSNPTSKAECSAEQCYKITKGRAIFASGSPFDPVTLPNGQTLYPGQGNNSYVFPGVALGVVACGLRQITDNIFLTTAEVIAQQVSDKHLEEGRLYPPLNTIRDVSLKIAEKIVKDAYQEKTATVYPEPQNKEAFVRSQMYSTDYDQILPDCYSWPEEVQKIQTKVDQ
On to B1, for which the stoichiometry N in test [6] worked out at 2.
